Here are results for 15 molecules from US20230220084A1 (DRAGONFLY THERAPEUTICS, published 2023).

The target in one experiment is T1, De-sialylated hCLEC12A (human, UniProt Q5QGZ9 65-265, limits assumed, glycans de-sialylated).
T1 construct: Same protein as m1 after removal of sialic acid; also called de-sialylated version of hCLEC12A
T1 sequence (looked up): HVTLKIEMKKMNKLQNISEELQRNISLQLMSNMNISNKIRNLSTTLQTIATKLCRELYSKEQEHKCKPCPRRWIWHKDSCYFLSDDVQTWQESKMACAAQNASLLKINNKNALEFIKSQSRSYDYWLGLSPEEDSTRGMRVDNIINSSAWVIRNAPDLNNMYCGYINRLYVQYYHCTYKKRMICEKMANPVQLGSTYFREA
Description: SPR, analyte de-sialylated hCLEC12A.

Experiment [1] addresses T2, cCLEC12A-His (cynomolgus monkey, UniProt A0A2K5WXQ4 71-271).
T2 construct: Recombinant His-tagged cynomolgus CLEC12A; also called Cyno CLEC12A-His; recombinant cyno CLEC12A
T2 sequence: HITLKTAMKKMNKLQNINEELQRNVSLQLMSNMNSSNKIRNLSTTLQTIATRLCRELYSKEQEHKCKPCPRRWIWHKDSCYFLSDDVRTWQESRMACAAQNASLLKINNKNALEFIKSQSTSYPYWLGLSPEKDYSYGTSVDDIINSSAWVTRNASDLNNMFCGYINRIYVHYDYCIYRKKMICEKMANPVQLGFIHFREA
The experiment can be described thus: SPR, purified murine mAb, Cyno CLEC12A-His. (SPR reads the build-up and loss of mass on a sensor chip optically.)

Experiment [2] concerns the target T3, hCLEC12A-His fusion protein (human, UniProt Q5QGZ9 65-265, limits assumed).
T3 construct: Recombinant His-tagged human CLEC12A; also called Human CLEC12A-His; recombinant human CLEC12A
T3 sequence (looked up): T1 sequence (looked up)
The experiment can be described thus: SPR, analyte glycosylated hCLEC12A.

Experiment [3] deals with T3, hCLEC12A-His fusion protein. The experiment can be described thus: SPR screening, fully purified murine mAb.
The next experiment addresses T4, De-glycosylated hCLEC12A (human, UniProt Q5QGZ9 65-265, limits assumed, N-glycans removed with PNGase).
T4 construct: Same protein as m1 after PNGase treatment; also called PNGase-treated hCLEC12A; deglycosylated version of hCLEC12A
T4 sequence (looked up): T1 sequence (looked up)
The experiment can be described thus: SPR, analyte de-glycosylated hCLEC12A.

The target in experiment [4] is T5, human CLEC12A expressed on cells (human, UniProt Q5QGZ9 1-265).
T5 construct: whole, on cells; also called RMA-hCLEC12A; hCLEC12A+Ba/F3
T5 sequence (looked up): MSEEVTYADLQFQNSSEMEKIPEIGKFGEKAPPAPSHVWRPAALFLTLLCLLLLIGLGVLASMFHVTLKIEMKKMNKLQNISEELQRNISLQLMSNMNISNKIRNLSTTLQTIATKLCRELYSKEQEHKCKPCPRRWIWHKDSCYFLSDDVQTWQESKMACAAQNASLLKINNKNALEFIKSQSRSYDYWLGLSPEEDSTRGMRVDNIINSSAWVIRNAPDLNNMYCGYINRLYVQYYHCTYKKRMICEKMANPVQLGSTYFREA
Description: flow cytometry, PL21 cells. (In general: A flow cytometer gives signals particle by particle.)

Experiment [5] addresses T3, hCLEC12A-His fusion protein. Description: SPR, purified murine mAb.
Experiment [6] shares this target. The experiment can be described thus: SPR, purified murine mAb, Human CLEC12A-His.
Experiment [7] shares this target. Description: yeast display flow cytometry with hCLEC12A-his (PE-A against FITC-A).
Experiment [8] has the same target. The experiment is described as above. This is another data set of the same source.
Experiment [9] has the same target. Description: yeast display, flow cytometry.
For experiment [10], the target named is T2, cCLEC12A-His. The experiment can be described thus: SPR, purified murine mAb.
For experiment [11], the target named is T3, hCLEC12A-His fusion protein. The experiment can be described thus: SPR screening.

Substitutions are numbered along the chain they refer to.

B1: 16B8.C8 (antibody, V domains shown)
VH: EVQLQESGPGLVQPSQSLSITCTVSGFSLTNYGLHWVRQSPGKGLEWLGVIWSGGKTDYNTPFKSRLSISKDISKNQVFFKMNSLQPNDTAIYFCAKYDYDDSLDYWGQGTSVTVSS
VL: DIQMNQSPSSLSASLGDTIAITCHASQNINFWLSWYQQKPGNIPKLLIYEASNLHTGVPSRFSGSGSGTRFTLTISSLQPEDIATYYCQQSHSYPLTFGQGTKLEIK
notes: Murine mAb purified from the hybridoma subclone; also called Murine 16B8 mAb; Murine 16B8. mAb
With B1, the equilibrium dissociation constant (Kd) in the experiment with De-sialylated hCLEC12A is 0.007 nM; in [2], 0.012 nM; in experiment [3], 0.008 nM; in the experiment with De-glycosylated hCLEC12A it was 0.011 nM; in [5], 0.01 nM. Also, the dissociation rate constant (koff) in the experiment with De-sialylated hCLEC12A worked out at 3.62e-05 s⁻¹; in experiment [2], 4.7e-05 s⁻¹; in experiment [3] it was 2.35e-05 s⁻¹; in the experiment with De-glycosylated hCLEC12A, 4.45e-05 s⁻¹; in experiment [5], 4.44e-05 s⁻¹. Further, the kon with De-sialylated hCLEC12A was determined as 5.25e+06 M⁻¹ s⁻¹; in [2] it was 4.05e+06 M⁻¹ s⁻¹; in experiment [3], 3.03e+06 M⁻¹ s⁻¹; in the experiment with De-glycosylated hCLEC12A it was 4.26e+06 M⁻¹ s⁻¹; in experiment [5] it was 4.05e+06 M⁻¹ s⁻¹. Also, in the experiment with cCLEC12A-His [1], the binding result is on record as “no binding”. This molecule registered an EC50 in experiment [4] of 0.18 nM. For the same molecule, the “Max MFI” value in experiment [4] amounted to 300 MFI.

B2: 9E4.B7 (antibody, V domains shown)
VH: EVQLQESGAELMKPGASVKISCRTTGYTFSTYWIEWVKQRPGRGPEWIGELFPGNSDTTLNEKFTGKATFTADSSSNTAYMQLSSLTSEDSAVYYCARSGYYGSSLDYWGQGTTLTVSS
VL: GIVMTQSPASLSASVGETVTITCRAGENIHSYLAWYQQKQGKSPQLLVYNAKTLAEGVPSRFSGSGSGTQFSLKINSLQPEDFGSYYCQHHYGTPRTFGGGTKLEIK
notes: Murine mAb purified from the hybridoma subclone
For the molecule B2, the binding result with cCLEC12A-His [1] was “no binding”. In experiment [4], it took 0.64 nM to reach a half-maximal effect (EC50) and the “Max MFI” value was found to be 186 MFI.

B3: Merus-CLL1 (antibody, V domains shown)
VH: EVQLVQSGAEVKKPGASVKVSCKASGYTFTSYYMHWVRQAPGQGLEWMGIINPSGGSTSYAQKFQGRVTMTRDTSTSTVYMELSSLRSEDTAVYYCARGNYGDEFDYWGQGTLVTVSS
VL: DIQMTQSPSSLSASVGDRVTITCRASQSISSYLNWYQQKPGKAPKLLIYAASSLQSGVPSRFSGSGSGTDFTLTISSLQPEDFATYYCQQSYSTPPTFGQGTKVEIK
Take B3: in experiment [4], a half-maximal effect (EC50) was put at 2.02 nM and the “Max MFI” value is 201 MFI.

B4: 13E1.A4 (antibody, V domains shown)
VH: EVQLQESGPELEKPGASVRISCKASGYSFTAYNMNWVKQSNGKSLEWIGNIDPSYGDATYNQKFKGKATLTVDKSSSTAYMQLKSLTSEDSAVYYCARDNYYGSGYFDYWGQGTTLTVSS
VL: SVLMTQTPLSLPVSLGDRASISCRSSQGIVHINGNTYLEWYLQKPGQSPKLLIYKVSNRFSGVPDRFSGSGSGTDFTLKISRVEAEDLGVYYCFQGSHVPWTFGGGTKLEIK
notes: as for B2
Take B4: the binding result in experiment [6] is “binds”.

B5: parent scFv (YDYDDSLDY) (SEQ ID NO:5) of F3′-1602, yeast display (scFv)
scFv: QLQLQESGPGLVKPSETLSLTCTVSGFSLTNYGLHWIRQPPGKCLEWIGVIWSGGKTDYNPSLKSRVTISKDTSKNQFSLKLSSVQAADTAVYYCAKYDYDDSLDYWGQGTLVTVSSGGGGSGGGGSGGGGSGGGGSDIQMTQSPSSLSASVGDRVTITCHASQNINFWLSWYQQKPGKAPKLLIYEASNLHTGVPSRFSGSGSGTRFTLTISSLQPEDIATYYCQQSHSYPLTFGCGTKLEIK
For the molecule B5, the binding result in experiment [7] is given as “binds”.

B6: scFv CDRH3 variant YDYDDTLDY (SEQ ID NO:145), yeast display (scFv)
scFv: B5 scFv with S103T
notes: As m72
As to B6, the binding result in [8] is reported as “no binding”.

B7: scFv CDRH3 variant YDYDDILDY (SEQ ID NO:142), yeast display (scFv)
scFv: B5 scFv with S103I
notes: As m72
In the case of B7, the binding result in experiment [9] is “binds”.

B8: scFv CDRH3 variant YDYDESLDY (SEQ ID NO:146), yeast display (scFv)
scFv: B5 scFv with D102E
notes: As m72
As to B8, the binding result in experiment [8] is “no binding”.

B9: scFv CDRH3 variant YDYDDALDY (SEQ ID NO:141), yeast display (scFv)
scFv: B5 scFv with S103A
As to B9, the binding result in [9] was “binds”.

B10: scFv CDRH3 variant YDYDDVLDY (SEQ ID NO:144), yeast display (scFv)
scFv: B5 scFv with S103V
notes: As m72
Turning to B10, the binding result in experiment [8] was “no binding”.

B11: scFv CDRH3 variant YDYDDLLDY (SEQ ID NO:143), yeast display (scFv)
scFv: B5 scFv with S103L
notes: As m72
Consider B11, for which the binding result in experiment [9] is given as “binds”.

B12: 15A10.G8 (antibody, V domains shown)
VH: EVQLQESGAELVRSGASIKLSCAASAFNIKDYFIHWVRQRPDQGLEWIGWIDPENDDTEYAPKFQDKATMTADTSSNTAYLQLSSLTSADTAVYYCNALWSRGGYFDYWGQGTTLTVSS
VL: EVLLTQSPAIIAASPGEKVTITCSARSSVSYMSWYQQKPGSSPKIWIYGISKLASGVPARFSGSGSGTYFSFTINNLEAEDVATYYCQQRSYYPFTFGSGTKLEIK
notes: as for B2
Regarding B12, in experiment [5], the affinity, expressed as Kd, was 1.6 nM; the koff was 0.000494 s⁻¹; the kon came out at 301000 M⁻¹ s⁻¹. In the experiment with cCLEC12A-His [10], this molecule came in with a Kd of 3.3 nM, a koff of 0.000659 s⁻¹ and a kon of 196000 M⁻¹ s⁻¹.

B13: Genentech-h6E7 (antibody, V domains shown)
VH: EVQLVQSGAEVKKPGASVKVSCKASGYSFTDYYMHWVRQAPGQGLEWIGRINPYNGAAFYSQNFKDRVTLTVDTSTSTAYLELSSLRSEDTAVYYCAIERGADLEGYAMDYWGQGTLVTVSS
VL: DIQMTQSPSSLSASVGDRVTITCRASQSVSTSSYNYMHWYQQKPGKPPKLLIKYASNLESGVPSRFSGSGSGTDFTLTISSLQPEDFATYYCQHSWEIPLTFGQGTKVEIK
As for B13, in [4], it took 5 nM to reach a half-maximal effect (EC50) and the “Max MFI” value worked out at 265 MFI.

B14: 9F11.B7 (antibody, V domains shown)
VH: EVQLQESGGGLVQPGGSRKLSCAASGFTFNSFGMHWVRQAPEKGLEWVAFISSGSTSIYYANTVKGRFTISRDNPKNTLFLQMTSLRSEDTAMYYCARDGYPTGGAMDYWGQGTSVTVSS
VL: DIKMTQSPSSMYASLGERVTITCKASQDIYNYLSWFQLKPGKSPRPLIYRANILVSGVPSKFSGSGSGQDYSLTINSLEYEDLGIYYCLQFDAFPFTFGSGTKLEIK
notes: as for B2
With B14, the binding result with cCLEC12A-His [1] is given as “no binding”. Further, in experiment [4], the 50% effective concentration (EC50) amounted to 0.56 nM and the “Max MFI” value worked out at 217 MFI. Also, in experiment [5], the Kd was found to be 1.4 nM, the koff was 0.00157 s⁻¹ and the on-rate (kon) stood at 1.14e+06 M⁻¹ s⁻¹.

B15: m9F11-hIgG1 (antibody, V domains shown)
VH: B14 VH
VL: B14 VL
notes: also called chimeric parent mouse 9F11.B7 mAb
In experiment [11], B15 had a Kd of 1.07 nM, a koff of 0.00102 s⁻¹ and an on-rate (kon) of 950000 M⁻¹ s⁻¹.

As a reminder, the Kd is the free concentration of one partner at which half of the binding sites on the other are occupied at equilibrium, for simple one-to-one binding. Higher therefore signals a looser complex. The term koff denotes the first-order rate constant of dissociation. A lower koff goes with slow dissociation. What is called kon is a measure of how fast the partners come together. Low values mean slow association, high ones fast association. As usually defined, the EC50 is the concentration that produces a half-maximal response. A higher EC50 goes with a less potent agent.
